This is an account of results in patent US20250188434A1 (VERRA THERAPEUTICS, published 2025).

To fix the notation:
B1: 25-2 (SEQ ID NO: 22), as labelled in Table 5 (peptide)
chain: GSCGSARPGFQQTSHLSSYEIITPWRLTRERAEAPRPYSKQVSYVIQAEGKEHIIHLERNKDLLPEDFVVYTYNKEGTLITDHPNIQNHSHYRGYVEGVHNSSIALSDSFGLRGLLHLENASYGIEPLQNSSHFEHIIYRMDDVYKEPLKSGVSNKDIEKETAKDEEEEPPSMTQLLRR
B2: 25-3 (SEQ ID NO: 23), as labelled in Table 5 (peptide)
chain: ARPGFQQTSHLSSYEIITPWRLTRERAEAPRPYSKQVSYVIQAEGKEHIIHLERNKDLLPEDFVVYTYNKEGTLITDHPNIQNHSHYRGYVEGVHNSSIALSDSFGLRGLLHLENASYGIEPLQNSSHFEHIIYRMDDVYKEPLKSGVSNKDIEKETAKDEEEEPPSMTQLLRRGSGSC
B3: wild type human ADAM9 prodomain peptide (SEQ ID NO: 2) (peptide)
chain: ARPGFQQTSHLSSYEIITPWRLTRERREAPRPYSKQVSYVIQAEGKEHIIHLERNKDLLPEDFVVYTYNKEGTLITDHPNIQNHCHYRGYVEGVHNSSIALSDCFGLRGLLHLENASYGIEPLQNSSHFEHIIYRMDDVYKEPLKCGVSNKDIEKETAKDEEEEPPSMTQLLRR
B4: 25-1 (SEQ ID NO: 21), as labelled in Table 5 (peptide)
chain: ARPGFQQTSHLSSYEIITPWRLTRERAEAPRPYSKQVSYVIQAEGKEHIIHLERNKDLLPEDFVVYTYNKEGTLITDHPNIQNHSHYRGYVEGVHNSSIALSDSFGLRGLLHLENASYGIEPLQNSSHFEHIIYRMDDVYKEPLKCGVSNKDIEKETAKDEEEEPPSMTQLLRR
B5: modified ADAM9 prodomain peptide SEQ ID NO: 12 (peptide)
chain: ARPGFQQTSHLSSYEIITPWRLTRERAEAPRPYSKQVSYVIQAEGKEHIIHLERNKDLLPEDFVVYTYNKEGTLITDHPNIQNHSHYRGYVEGVHNSSIALSDSFGLRGLLHLENASYGIEPLQNSSHFEHIIYRMDDVYKEPLKSGVSNKDIEKETAKDEEEEPPSMTQLLRR
B6: modified ADAM9 prodomain peptide SEQ ID NO: 17 (peptide)
chain: QTSHLSSYEIITPWRLTRERAEAPRPYSKQVSYVIQAEGKEHIIHLERNKDLLPEDFVVYTYNKEGTLITDHPNIQNHSHYRGYVEGVHNSSIALSDSFGLRGLLHLENASYGIEPLQNSSHFEHIIYRMDDVYKEPLKSGVSNKDIEKETAKDEEEEPPSMTQLLRR
B7: pegylated SEQ ID NO: 22 (peptide)
chain: GSCGSARPGFQQTSHLSSYEIITPWRLTRERAEAPRPYSKQVSYVIQAEGKEHIIHLERNKDLLPEDFVVYTYNKEGTLITDHPNIQNHSHYRGYVEGVHNSSIALSDSFGLRGLLHLENASYGIEPLQNSSHFEHIIYRMDDVYKEPLKSGVSNKDIEKETAKDEEEEPPSMTQLLRR
modifications: pegylated at the N-terminus, on the cysteine of the added N-terminal pentapeptide (PEG size not stated for this construct)
B8: pegylated SEQ ID NO: 20 (peptide)
chain: ARPGFQQTSHLSSYEIITPWRLTREAREAPRPYSKQVSYVIQAEGKEHIIHLERNKDLLPEDFVVYTYNKEGTLITDHPNIQNHSHYRGYVEGVHNSSIALSDSFGLRGLLHLENASYGIEPLQNSSHFEHIIYRMDDVYKEPLKSGVSNKDIEKETAKDEEEEPPSMTQLLRRGSGSC
modifications: 20 kDa maleimide PEG on the cysteine of the pentapeptide added to the C-terminus
B9: pegylated SEQ ID NO: 23 (peptide)
chain: ARPGFQQTSHLSSYEIITPWRLTRERAEAPRPYSKQVSYVIQAEGKEHIIHLERNKDLLPEDFVVYTYNKEGTLITDHPNIQNHSHYRGYVEGVHNSSIALSDSFGLRGLLHLENASYGIEPLQNSSHFEHIIYRMDDVYKEPLKSGVSNKDIEKETAKDEEEEPPSMTQLLRRGSGSC
modifications: pegylated at the C-terminus, on the cysteine of the added C-terminal pentapeptide (PEG size not stated for this construct)
B10: Chemically modified SEQ ID NO: 2 (wild type ADAM9 prodomain labelled with ALEXA FLUOR 647 maleimide ester) (peptide)
chain: ARPGFQQTSHLSSYEIITPWRLTRERREAPRPYSKQVSYVIQAEGKEHIIHLERNKDLLPEDFVVYTYNKEGTLITDHPNIQNHCHYRGYVEGVHNSSIALSDCFGLRGLLHLENASYGIEPLQNSSHFEHIIYRMDDVYKEPLKCGVSNKDIEKETAKDEEEEPPSMTQLLRR
modifications: ALEXA FLUOR 647 brand maleimide ester on its three cysteines (85, 104 and 146 of SEQ ID NO: 2)
B11: modified ADAM9 prodomain peptide SEQ ID NO: 19 (peptide)
chain: ARPGFQQTSHLSSYEIITPWRLTRERAEAPRPYSKQVSYVIQAEGKEHIIHLERNKDLLPEDFVVYTYNKEGTLITDHPNIQNHSHYRGYVEGVHNSSIALSDSFGLRGLLHLENASYGIEPLQNSSHFEHIIYRMDDVYKEPLKSGVSNKDIEKETAKDNENEPPSMTQLLRR
B12: modified ADAM9 prodomain peptide SEQ ID NO: 16 (peptide)
chain: ARPGFQQTSHLSSYEIITPWRLTRERSEAPRPYSKQVSYVIQAEGKEHIIHLERNKDLLPEDFVVYTYNKEGTLITDHPNIQNHSHYRGYVEGVHNSSIALSDSFGLRGLLHLENASYGIEPLQNSSHFEHIIYRMDDVYKEPLKSGVSNKDIEKETAKDEEEEPPSMTQLLRR
B13: modified ADAM9 prodomain peptide SEQ ID NO: 13 (peptide)
chain: ARPGFQQTSHLSSYEIITPWRLTRERREAPRPYSKQVSYVIQAEGKEHIIHLERNKDLLPEDFVVYTYNKEGTLITDHPNIQNHSHYRGYVEGVHNSSIALSDSFGLRGLLHLENASYGIEPLQNSSHFEHIIYRMDDVYKEPLKSGVSNKDIEKETAKDEEEEPPSMTQLLRR
B14: modified ADAM9 prodomain peptide SEQ ID NO: 18 (peptide)
chain: ARPGFQQTSHLSSYEIITPWRLTRERAEAPRPYSKQVSYVIQAEGKEHIIHLERNKDLLPEDFVVYTYNKEGTLITDHPNIQNHSHYRGYVEGVHNSSIALSDSFGLRGLLHLENASYGIEPLQNSSHFEHIIYRMDSVYKEPLKSGVSNKDIEKETAKDEEEEPPSMTQLLRR
B15: modified ADAM9 prodomain peptide SEQ ID NO: 11 (peptide)
chain: ARPGFQQTSHLSSYEIITPWRLTAERREAPRPYSKQVSYVIQAEGKEHIIHLERNKDLLPEDFVVYTYNKEGTLITDHPNIQNHSHYRGYVEGVHNSSIALSDSFGLRGLLHLENASYGIEPLQNSSHFEHIIYRMDDVYKEPLKSGVSNKDIEKETAKDEEEEPPSMTQLLRR
B16: modified ADAM9 prodomain peptide SEQ ID NO: 10 (peptide)
chain: ARPGFQQTSHLSSYEIITPWRLTREAREAPRPYSKQVSYVIQAEGKEHIIHLERNKDLLPEDFVVYTYNKEGTLITDHPNIQNHSHYRGYVEGVHNSSIALSDSFGLRGLLHLENASYGIEPLQNSSHFEHIIYRMDDVYKEPLKSGVSNKDIEKETAKDEEEEPPSMTQLLRR
B17: modified ADAM9 prodomain peptide SEQ ID NO: 14 (peptide)
chain: ARPGFQQTSHLSSYEIITPWRLTREAREAPRPYSKQVSYVIQAEGKEHIIHLERNKDLLPEAFVVYTYNKEGTLITDHPNIQNHSHYRGYVEGVHNSSIALSDSFGLRGLLHLENASYGIEPLQNSSHFEHIIYRMDDVYKEPLKSGVSNKDIEKETAKDEEEEPPSMTQLLRR
B18: pegylated SEQ ID NO: 21 (peptide)
chain: ARPGFQQTSHLSSYEIITPWRLTRERAEAPRPYSKQVSYVIQAEGKEHIIHLERNKDLLPEDFVVYTYNKEGTLITDHPNIQNHSHYRGYVEGVHNSSIALSDSFGLRGLLHLENASYGIEPLQNSSHFEHIIYRMDDVYKEPLKCGVSNKDIEKETAKDEEEEPPSMTQLLRR
modifications: pegylated at cysteine 146 (PEG size not stated for this construct)

The target of one test is T1, Human Meprin beta (human, UniProt Q16820 62-652, limits assumed).
T1 sequence (looked up): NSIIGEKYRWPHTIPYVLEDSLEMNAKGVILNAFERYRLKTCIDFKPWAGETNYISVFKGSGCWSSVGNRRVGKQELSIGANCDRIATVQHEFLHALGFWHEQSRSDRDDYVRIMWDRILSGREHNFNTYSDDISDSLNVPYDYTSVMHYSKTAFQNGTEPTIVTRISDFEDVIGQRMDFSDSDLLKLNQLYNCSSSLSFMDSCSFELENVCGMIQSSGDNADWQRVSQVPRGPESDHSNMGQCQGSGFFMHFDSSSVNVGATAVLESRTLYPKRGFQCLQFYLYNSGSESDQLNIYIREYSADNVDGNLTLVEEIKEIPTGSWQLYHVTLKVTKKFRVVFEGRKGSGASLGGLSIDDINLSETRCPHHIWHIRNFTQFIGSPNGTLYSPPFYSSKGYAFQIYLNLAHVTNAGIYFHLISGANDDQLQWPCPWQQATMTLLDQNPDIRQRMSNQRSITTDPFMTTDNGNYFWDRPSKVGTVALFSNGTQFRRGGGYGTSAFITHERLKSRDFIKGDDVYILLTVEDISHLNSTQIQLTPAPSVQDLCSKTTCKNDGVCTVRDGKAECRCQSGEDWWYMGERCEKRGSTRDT
Put plainly: cell-based or functional assay.
As to B1, the “IC50, inhibition of activated Meprin beta on fluorescent substrate PEPDAB022” value was found to be 3800 nM.
As to B2, the “IC50, inhibition of activated Meprin beta on fluorescent substrate PEPDAB022” value amounted to 5700 nM.
The same measure, in the same setting: then B3, with 200 nM; and B4, with 2800 nM; and B5, with 7400 nM.

A further test concerns the target T2, ADAM9 (human or mouse ADAM9, enzyme of the in vitro inhibition assay) (human or mouse, UniProt Q13443 206-697, limits assumed).
T2 sequence (looked up): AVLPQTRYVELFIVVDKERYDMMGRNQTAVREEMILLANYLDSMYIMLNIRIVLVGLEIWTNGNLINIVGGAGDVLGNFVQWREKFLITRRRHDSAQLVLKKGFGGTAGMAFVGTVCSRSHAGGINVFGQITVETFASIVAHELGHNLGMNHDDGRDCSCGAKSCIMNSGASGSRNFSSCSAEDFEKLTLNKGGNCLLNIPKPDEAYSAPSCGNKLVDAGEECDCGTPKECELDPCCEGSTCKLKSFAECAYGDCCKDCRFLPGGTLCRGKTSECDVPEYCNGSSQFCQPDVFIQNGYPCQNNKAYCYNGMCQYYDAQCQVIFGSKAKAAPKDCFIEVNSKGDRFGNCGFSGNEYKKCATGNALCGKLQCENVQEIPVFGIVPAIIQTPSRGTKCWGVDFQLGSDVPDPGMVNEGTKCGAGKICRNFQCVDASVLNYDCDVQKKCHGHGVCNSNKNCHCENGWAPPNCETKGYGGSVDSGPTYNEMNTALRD
Put plainly: cell-based or functional assay.
As for B3, the “IC50, inhibition of ADAM9 activity; wild type prodomain assayed 1 week after dialysis, when dimer formation had occurred” value is 120 nM.

The target in the next test is T2, ADAM9 (human or mouse ADAM9, enzyme of …). Put plainly: cell-based or functional assay. This is another data set of the same source.
With B6, the “IC50, inhibition of ADAM9 activity on FRET substrate PEPDAB064; prodomain from inclusion bodies” value amounted to 185 nM.
Same read-out and setting: for B7 the value was 60 nM.
Still for that read-out and setting: then B8, with 16 nM; and B9, with 39.9 nM.
On the same count and under the same terms, for B3 the value was 20 nM; for B10, 125 nM; for B11, 33 nM.
Consider B12, for which the “IC50, inhibition of ADAM9 activity on FRET substrate PEPDAB064; prodomain from inclusion bodies” value came to 29 nM.
Same read-out and setting: for B13 the value was 46 nM.
As to B5, the “IC50, inhibition of ADAM9 activity on FRET substrate PEPDAB064; prodomain from inclusion bodies” value is 41 nM and the “IC50, inhibition of ADAM9 activity on FRET substrate PEPDAB064; prodomain from soluble fraction” value (“IC50, inhibition … from soluble fraction” for short) was 39 nM.
For B14, the “IC50, inhibition of ADAM9 activity on FRET substrate PEPDAB064; prodomain from inclusion bodies” value was 181 nM.
On to B15, for which the “IC50, inhibition of ADAM9 activity on FRET substrate PEPDAB064; prodomain from inclusion bodies” value is greater than 200 nM and the “IC50, inhibition … from soluble fraction” value turned out to be 13.8 nM.
With B16, the “IC50, inhibition … from soluble fraction” value came to 49 nM and the “IC50, inhibition of ADAM9 activity on FRET substrate PEPDAB064; prodomain refolded from inclusion bodies (aggregating)” value was greater than 200 nM.
Regarding B17, the “IC50, inhibition of ADAM9 activity on FRET substrate PEPDAB064; prodomain from inclusion bodies” value was found to be 136 nM.
Still for that read-out and setting: then B18, with 40.5 nM.
